From patent US6723697B2, “IL-16 antagonists” (Research Corporation Technologies, Inc., priority 1999, dated 2004)
Substitutions are numbered along the chain they refer to. Entries after “also recorded” stand apart in the source; their conditions may differ. One block for each molecule: values may come before it.

Experiments:
Format in all cases: cell-based
rIL-16 = biological target: T1, rIL-16 (Mus musculus, UniProt O54824); experiment: IL-2R (CD25) induction on rIL-16-stimulated murine splenocytes, flow cytometry
T1 construct: polyhistidine fusion protein containing the 119 C-terminal residues encoded by the previously reported murine cDNA; polyhistidine (cleaved yes); made in house; host or cells: Escherichia coli strain HMS 174, vector pET16b
T1 sequence (O54824 1204-1322): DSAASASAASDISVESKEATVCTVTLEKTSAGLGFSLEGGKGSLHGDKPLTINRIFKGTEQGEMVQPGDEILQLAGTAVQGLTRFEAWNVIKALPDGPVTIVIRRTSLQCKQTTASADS
Experimental: Induction of IL-2R (CD25) on rIL-16-stimulated murine splenocytes was detected by staining with FITC-conjugated anti-mouse IL-2R Ab (PharMingen). Cells were fixed with 10% formalin and stored at 4° C. in the dark before analysis with a Becton Dickinson FACScan 440 flow cytometer. The % IL-2R^+ cells was determined by subtracting the % isotype control positive from the total % positive events.
Peptides A (SEQ ID NO:15) and C (SEQ ID NO:19) were inhibitory at 10^−7 M, but not 10^−6 M. The negative control peptide D (SEQ ID NO:20) (10^−6 M) had no effect on rIL-16-stimulated IL-2R expression.
Murine splenocytes were incubated in control buffer, rIL-16 alone, or rIL-16 plus the indicated peptide. IL-2R expression was determined by flow cytometry using FITC-conjugated anti-IL-2R antibody. The % IL-2R^+ was determined by subtracting the FITC-conjugated isotype control antibody binding from the FITC-conjugated anti-IL-2R antibody binding. Isotype control antibody binding ranged from 1% to 4%.

murine rIL-16 [1] = biological target: T2, murine rIL-16 (Mus musculus, UniProt O54824); experiment: murine rIL-16-stimulated murine splenocyte migration, modified Boyden chamber; conditions: for IL-16-inhibitory activity (block of murine rIL-16-stimulated murine splenocyte migration): peptide concentration not given
T2 construct: polyhistidine fusion protein containing the 119 C-terminal residues encoded by the previously reported murine cDNA; polyhistidine (cleaved yes); made in house; host or cells: Escherichia coli strain HMS 174, vector pET16b
T2 sequence (O54824 1204-1322): T1 sequence (O54824 1204-1322)
Experimental: (§1) Cell migration was assessed using a modified Boyden chamber. […] Cell migration is expressed as the mean % control migration.
(§2) Results from multiple experiments were analyzed using Student's t test for paired variables, and Tukey's test for multiple variables. A P value<0.05 was considered significant.
Peptide B (aa 341-352) includes the sequence WQCLLS (residues 344-349, SEQ ID NO:4) which is 100% conserved in all the species examined. Peptide A (aa 327-338) and peptide C (aa 351-362) correspond to the N-terminal and C-terminal flanks of peptide B, respectively. A random scrambled 12-residue peptide (LSKQKMVSREGT) designated peptide D (SEQ ID NO:20) was used a negative control for nonspecific effects of peptide administration on splenocyte motility. Criteria for the design of peptide D included overall hydrophilicity, neutral charge and no cysteine residues (to prevent possible dimer formation).
Murine spleens were harvested from healthy 8-week male BALB/c mice (Jackson Laboratory). Splenocytes were isolated by grinding spleens between fiysted slides in M199 culture medium (M. A. Bioproducts), supplemented with 0.4% bovine serum albumin, 22 mM HEPES buffer, 100 with U/ml of penicillin, 100 μg/ml streptomycin (M199-HPS). Cells were washed and erytbrocytes were lysed in Gey's solution. Splenocytes were washed twice in M199, and resuspended to a final concentration of 2×10^6 cells/ml in RPMI1640 medium (BioWhittaker) supplemented with 10% FBS, 100 U/ml of penicillin and 100 μg/ml of streptomycin. By flow cytometry, 25% of the isolated splenocytes within the lymphocyte-cloud were CD4^+.
Recombinant murine IL-16 was produced in Escherichia coli (strain HMS 174; Novagen) as a polyhistidine fusion protein containing the 119 C-terminal residues encoded by the previously reported murine cDNA (Keane et al., (1998) J. Immunol. 160: 5945-5954), using the bacterial expression vector pET16b (Novagen). The recombinant product corresponds to the secreted form of natural murine IL-16 following cleavage by caspase-3 (Zhang et al. (1998) J. Biol. Chem. 273:1144-1149). The rIL-16 was purified by metal chelation chromatography, and the polyhistidine tag was cleaved with factor Xa (New England Biolabs).

murine rIL-16 [2] = biological target: T2, murine rIL-16; experiment: IL-16-stimulated T-lymphocyte migration, human CD4 D4 point mutants; conditions: human CD4 D4 wild type or point mutant, rIL-16 10^-9 M
Experimental: Point mutations at Leu 348 and Leu 349 in human CD4 were prepared as follows.
Initially 100 ng of wild type human CD4 cDNA (Richard Axel, Columbia University, N.Y.) contained within the mammalian expression vector pcDNA3.1(−) (Invitrogen, Carlsbad, Calif.) was subjected to the polymerase chain reaction (PCR) in the presence of 125 ng of each set of primer pairs. PCR conditions were as follows:
The time for the elongation step varied according to the relationship of 2 minutes per kilobase of plasmid DNA length. The product was then subjected to restriction digestion with the enzyme Dpn for 1 h. at 37° C. Dpn is specific for methylated nucleotides and therefore will only cut the original wide type CD4-plasmid DNA. The transformation reaction required the addition of 1 μl of the digest to 50 μl of Epicurean Blue Eschericia coli which was incubated on ice for 30 min. and finally heat shocked 42° C., 45 sec to seal the supercompent bacteria. The resultant bacteria culture was selected on ampicillin plates and sequenced to confirm mutagenesis.
as §1, §2
(FIGS. 10A and 10B). […] (FIGS. 11A and 11B).

% IL-2R+ CELLS (rIL-16; IL-16 + negative control peptide, 10^-6 M): 37%
inhibition of IL-16-stimulated induction of IL-2R (rIL-16; peptide 10^-6 M): no effect
Molecule: LSKQKMVSREGT (OTHER INFORMATION: Description of Artificial Sequence:IL-16 antagonist peptide) [peptide D, random scrambled 12-residue peptide used as negative control, reference compound]

IL-16-inhibitory activity (block of murine rIL-16-stimulated murine splenocyte migration) (murine rIL-16 [1]; rIL-16 10^-9 M): failed to block IL-16
Molecule: WACLLS (OTHER INFORMATION: Description of Artificial Sequence:IL-16 antagonist peptide) [aa 345 Q:A substituted]

IL-16-inhibitory activity (block of murine rIL-16-stimulated murine splenocyte migration) (murine rIL-16 [1]; rIL-16 10^-9 M): failed to block IL-16
Molecule: WQCELS (OTHER INFORMATION: Description of Artificial Sequence:IL-16 antagonist peptide) [aa 347 L:E substituted]

inhibition of IL-16 (splenocyte migration) (murine rIL-16 [1]; peptide 10^-7 M, rIL-16 10^-9 M): inhibited IL-16
Molecule: WQCLLS (OTHER INFORMATION: Description of Artificial Sequence:IL-16 antagonist peptide) [aa 344-349 of mouse CD4 D4]

% IL-2R+ CELLS (rIL-16; rIL-16 10^-9 M alone, no stimulation 24): 36%
increase of basal IL-2R expression (rIL-16; rIL-16 alone, murine splenocytes): 50%
B1: rIL-16: recombinant murine IL-16, 119 C-terminal residues, produced in Escherichia coli (protein)
chain: T1 sequence (O54824 1204-1322)

inhibition of IL-16-stimulated T-lymphocyte migration (murine rIL-16 [2]): IL-16-inhibitory activity
B2: NLTCEVWGPTSPKLMLSLKLENKEAKVSKREKAVWVLNPEAGMWQCLLSDSGQVLLESNIKVLPTWSTPVQPM (peptide)
chain: NLTCEVWGPTSPKLMLSLKLENKEAKVSKREKAVWVLNPEAGMWQCLLSDSGQVLLESNIKVLPTWSTPVQPM
modifications: OTHER INFORMATION: Description of Artificial Sequence:IL-16 antagonist peptide
notes: aa 302-374 of human CD4 D4

inhibition of IL-16-stimulated T-lymphocyte migration (murine rIL-16 [2]): lost the ability to inhibit
inhibition of IL-16-stimulated T-lymphocyte migration (murine rIL-16 [2]; listed as human CD4 (L348→S)): complete loss in inhibition
B3: NLTCEVWGPTSPKLMLSLKLENKEAKVSKREKAVWVLNPEAGMWQCSLSDSGQVLLESNIKVLPTWSTPVQPM (peptide)
chain: B2 chain with L47S
modifications: OTHER INFORMATION: Description of Artificial Sequence:IL-16 antagonist peptide
notes: human CD4 D4 with leucine 348 to serine

inhibition of IL-16-stimulated T-lymphocyte migration (murine rIL-16 [2]): maintained partial ability to inhibit
inhibition of IL-16-stimulated T-lymphocyte migration (murine rIL-16 [2]; listed as Leucine 348 was conservatively substituted with Isoleucine): Partial inhibition
B5: … (peptide)
chain: B2 chain with L47I
modifications: OTHER INFORMATION: Description of Artificial Sequence:IL-16 antagonist peptide
notes: human CD4 D4 with Isoleucine substituted at position 348

The remaining lines, values behind:

Molecule: VAPETG (OTHER INFORMATION: Description of Artificial Sequence:IL-16 antagonist peptide) [aa 337-342, bridges peptide A and peptide B]
IL-16-inhibitory activity (block of murine rIL-16-stimulated murine splenocyte migration) (murine rIL-16 [1]; rIL-16 10^-9 M): failure; also recorded: lacked inhibitory activity

Molecule: VKQVVA (OTHER INFORMATION: Description of Artificial Sequence:IL-16 antagonist peptide) [aa 334 V:K substituted]
reduction of IL-16-stimulated splenocyte migration in combination with peptide B (murine rIL-16 [1]; peptide 10^-6 M plus peptide B fixed 0.5×10^-8 M): reduced IL-16-stimulated splenocyte migration
reduction of IL-16-stimulated splenocyte migration in combination with peptide B (murine rIL-16 [1]; peptide 10^-7 M plus peptide B fixed 0.5×10^-8 M): reduced IL-16-stimulated splenocyte migration

Molecule: VSEEQK (OTHER INFORMATION: Description of Artificial Sequence:IL-16 antagonist peptide) [N-terminal half of peptide A]
synergy when combined with peptide B (murine rIL-16 [1]; concentration not given, data not shown): no synergy
IL-16-inhibitory activity (block of murine rIL-16-stimulated murine splenocyte migration) (murine rIL-16 [1]; rIL-16 10^-9 M): no inhibitory activity

Molecule: VVQKVA (OTHER INFORMATION: Description of Artificial Sequence:IL-16 antagonist peptide) [aa 336 V:K substituted]
block of IL-16-stimulated splenocyte motility in combination with peptide B (murine rIL-16 [1]; peptide 0.5×10^-6 M to 0.5×10^-9 M (any concentration) plus peptide B fixed 0.5×10^-8 M): did not block IL-16

Molecule: VVQVVA (OTHER INFORMATION: Description of Artificial Sequence:IL-16 antagonist peptide) [aa 333-338 of mouse CD4 D4, C-terminal half of peptide A]
synergistic activity with peptide B (murine rIL-16 [1]; 6-residue peptide 10^-8 M combined with peptide B, data not shown): synergistic activity
inhibition of rIL-16-induced splenocyte migration (murine rIL-16 [1]; peptide 10^-6 M, rIL-16 10^-9 M): inhibited rIL16-induced splenocyte migration

Molecule: WQALLS (OTHER INFORMATION: Description of Artificial Sequence:IL-16 antagonist peptide) [aa 346 C:A substituted]
IL-16-inhibitory activity (block of murine rIL-16-stimulated murine splenocyte migration) (murine rIL-16 [1]; rIL-16 10^-9 M): equally as effective as the native WQCLLS

B4: NLTCEVWGPTSPKLMLSLKLENKEAKVSKREKAVWVLNPEAGMWQCLSSDSGQVLLESNIKVLPTWSTPVQPM (peptide)
chain: B2 chain with L48S
modifications: OTHER INFORMATION: Description of Artificial Sequence:IL-16 antagonist peptide
notes: human CD4 D4 with leucine 349 to serine
inhibition of IL-16-stimulated T-lymphocyte migration (murine rIL-16 [2]): lost the ability to inhibit
inhibition of IL-16-stimulated T-lymphocyte migration (murine rIL-16 [2]; listed as human CD4 (L349→S)): complete loss in inhibition

B6: NLTCEVWGPTSPKLMLSLKLENKEAKVSKREKAVWVLNPEAGMWQCLISDSGQVLLESNIKVLPTWSTPVQPM (peptide)
chain: B2 chain with L48I
modifications: OTHER INFORMATION: Description of Artificial Sequence:IL-16 antagonist peptide
notes: human CD4 D4 with Isoleucine substituted at position 349
inhibition of IL-16-stimulated T-lymphocyte migration (murine rIL-16 [2]): maintained partial ability to inhibit
inhibition of IL-16-stimulated T-lymphocyte migration (murine rIL-16 [2]; listed as Leucine 349 was conservatively substituted with Isoleucine): Partial inhibition
